Assay results from patent publication US20080152587A1 (Amgen, published 2008).

T1: human Ly6e with a myc tag, expressed in HEK293T cells (human, UniProt Q16553 21-101)
T1 construct: whole, on cells; not shown: myc tag fused on the molecule
T1 sequence (looked up): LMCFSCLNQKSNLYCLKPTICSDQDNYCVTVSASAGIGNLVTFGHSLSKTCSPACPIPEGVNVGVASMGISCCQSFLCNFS

T2: mouse uPAR on the surface of NCTC L929 cells (mouse, UniProt P35456 24-298)
T2 construct: whole, on cells; also called cell surface mouse uPAR
T2 sequence (looked up): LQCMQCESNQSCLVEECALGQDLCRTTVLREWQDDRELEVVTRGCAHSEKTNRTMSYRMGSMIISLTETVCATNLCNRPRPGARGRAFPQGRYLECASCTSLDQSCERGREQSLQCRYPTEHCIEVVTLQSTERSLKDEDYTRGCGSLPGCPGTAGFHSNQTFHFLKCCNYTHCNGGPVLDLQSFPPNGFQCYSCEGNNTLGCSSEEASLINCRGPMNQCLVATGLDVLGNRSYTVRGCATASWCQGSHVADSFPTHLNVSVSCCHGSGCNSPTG

T3: lane 1: murine DI/DIII-human DII uPAR chimera (His-tagged)
T3 construct: The sheet prints only the lane number; also called Murine D1/Human D2/Murine D3; murine D1/human D2/MuD3
T3 uPAR ECD chimera: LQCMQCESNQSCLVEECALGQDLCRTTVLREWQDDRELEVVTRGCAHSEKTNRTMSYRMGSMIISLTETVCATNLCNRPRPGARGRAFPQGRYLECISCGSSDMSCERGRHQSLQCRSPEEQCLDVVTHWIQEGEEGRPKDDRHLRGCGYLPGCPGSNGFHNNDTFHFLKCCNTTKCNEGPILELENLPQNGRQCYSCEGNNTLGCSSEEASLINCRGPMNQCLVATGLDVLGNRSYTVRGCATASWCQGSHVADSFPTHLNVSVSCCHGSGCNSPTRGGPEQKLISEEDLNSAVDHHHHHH

T4: lane 4: human DI/DII-murine DIII uPAR chimera (His-tagged)
T4 construct: The sheet prints only the lane number; also called Human D1D2/Murine D3; human D1D2/murineD3uPAR
T4 uPAR ECD chimera: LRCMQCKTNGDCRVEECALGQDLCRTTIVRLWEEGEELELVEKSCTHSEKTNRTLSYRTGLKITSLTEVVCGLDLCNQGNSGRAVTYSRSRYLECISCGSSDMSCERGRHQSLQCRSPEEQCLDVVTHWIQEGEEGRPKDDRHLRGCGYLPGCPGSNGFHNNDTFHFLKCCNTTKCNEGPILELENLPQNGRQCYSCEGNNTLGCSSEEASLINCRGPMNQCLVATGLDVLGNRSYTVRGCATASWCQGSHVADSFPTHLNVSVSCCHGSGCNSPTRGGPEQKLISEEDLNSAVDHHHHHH

T5: lane 3: murine DI-human DII/DIII uPAR chimera (His-tagged)
T5 construct: The sheet prints only the lane number; also called Murine D1/Human D2D3; murine D1/humanD2D3
T5 uPAR ECD chimera: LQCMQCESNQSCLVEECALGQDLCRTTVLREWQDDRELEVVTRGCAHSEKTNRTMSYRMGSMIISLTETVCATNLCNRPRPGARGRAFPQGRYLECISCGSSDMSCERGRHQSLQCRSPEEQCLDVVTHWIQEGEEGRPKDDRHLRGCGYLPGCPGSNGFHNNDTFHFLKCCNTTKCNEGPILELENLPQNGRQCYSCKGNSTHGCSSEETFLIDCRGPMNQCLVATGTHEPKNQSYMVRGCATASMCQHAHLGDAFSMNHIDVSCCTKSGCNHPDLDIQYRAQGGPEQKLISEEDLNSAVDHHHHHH

T6: lane 2: murine DI/DII-human DIII uPAR chimera (His-tagged)
T6 construct: The sheet prints only the lane number; also called Murine D1D2/Human D3
T6 uPAR ECD chimera: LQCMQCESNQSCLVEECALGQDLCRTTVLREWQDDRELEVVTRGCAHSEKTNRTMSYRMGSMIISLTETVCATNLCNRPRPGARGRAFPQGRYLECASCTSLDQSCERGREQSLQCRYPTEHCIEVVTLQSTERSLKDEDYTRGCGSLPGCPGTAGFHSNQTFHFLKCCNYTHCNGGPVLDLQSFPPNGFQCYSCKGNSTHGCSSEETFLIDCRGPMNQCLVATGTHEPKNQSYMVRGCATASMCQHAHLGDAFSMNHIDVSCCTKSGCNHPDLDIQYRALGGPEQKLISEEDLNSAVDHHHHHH


What was measured:
[1] = target: T7, soluble recombinant human uPAR/His6 (R&D Systems, Cat. # 807-UK-100) (human, UniProt Q03405 23-303); test: limited antigen ELISA, uPAR coat 20 ng/mL, sample 1:25
T7 construct: range 1-303; Bought protein; also called soluble uPAR; hu-uPAR
Target sequence in this assay (Q03405 other isoform, or with tags, fused parts or gaps limits assumed, form in doubt): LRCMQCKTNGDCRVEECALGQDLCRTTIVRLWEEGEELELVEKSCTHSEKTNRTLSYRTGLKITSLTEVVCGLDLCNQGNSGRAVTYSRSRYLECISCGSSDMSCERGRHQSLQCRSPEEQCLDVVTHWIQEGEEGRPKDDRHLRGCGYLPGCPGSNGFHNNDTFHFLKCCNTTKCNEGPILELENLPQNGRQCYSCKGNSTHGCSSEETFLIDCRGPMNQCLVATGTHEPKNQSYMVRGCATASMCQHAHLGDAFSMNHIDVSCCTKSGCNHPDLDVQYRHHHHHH
Experimental: ELISA plates were coated with a lower amount ofuPAR in comparison with the High Antigen Quantitation assay described below (320, 160, 80, 40 and 20 ng/mL). Samples containing one concentration of antibody (Ab) (1:25 dilution) were incubated overnight to allow Ab binding to approach equilibrium.

[2] = target: T8, human urokinase-type plasminogen activator receptor (uPAR, CD87), cell-bound (human, UniProt Q03405 23-305); test: FACS, U937 cells, mAb 5 µg/ml on ice, alexa647 goat anti-human F(ab), not stripped
T8 construct: whole, on cells; On B300.19 or L929 transfectants (full length cDNA), or native on U937 and PC-3 cells
Experimental: A cell suspension containing 100,000 cells was pipetted into each well of a V-bottom plates in duplicate. Two V-bottom plates were prepared, one to be kept at 37° C. during internalization with antibody complex, and the other to be incubated at 4° C. Each of the eight uPAR mAbs was incubated with U937 cells at 5 μg/ml on ice for 15 min. Incubation on ice was necessary to prevent internalization of the primary mAbs. The cells were then washed with cold FACS buffer. Cells were subsequently incubated on ice in 100 μl of 5 μg/ml alexa647-labelled goat anti-humanF(ab) (Invitrogen catalogue number A21249) in cold FACS buffer for 15 min. This allowed the goat FAB bind to the bound uPAR mAbs without permitting any internalization. After a 15 minute incubation on ice, one plate was kept on ice, while the other plate was incubated at 37° C. for 1 hour.
Following the 1 hr incubation with the mAb-FAB complex, the cells were washed twice with cold 5% FACS buffer, and 200 μl of Tris(2-carboxyethyl)phosphine HCl (TCEP) was added to each well as a stripping agent. The plates were both incubated with TCEP on ice for 1 hour, followed by washing and resuspending with FACS buffer. 4 μl of 7-Amino-Actinomycin D (7AAD) was added to each well, followed by 10 min incubation on ice before FACS analysis was conducted.

[3] = target: T7, soluble recombinant human uPAR/His6 …; test: low resolution Biacore
Experimental: A high-density goat anti-human antibody surface over a CM5 Biacore™ chip was prepared using routine amine coupling. […] Each mAb was captured on a separate flow cell using a 30-second contact time at 10 μL/min followed by a 5-minute wash at a 100 μL/min flow rate for stabilization of the mAb baseline. […] All antigen samples were prepared in the running buffer.

[4] = target: T8, human urokinase-type plasminogen …; test: FACS competition with FITC-tc-uPA, line material
Target sequence in this assay (Q03405 23-305): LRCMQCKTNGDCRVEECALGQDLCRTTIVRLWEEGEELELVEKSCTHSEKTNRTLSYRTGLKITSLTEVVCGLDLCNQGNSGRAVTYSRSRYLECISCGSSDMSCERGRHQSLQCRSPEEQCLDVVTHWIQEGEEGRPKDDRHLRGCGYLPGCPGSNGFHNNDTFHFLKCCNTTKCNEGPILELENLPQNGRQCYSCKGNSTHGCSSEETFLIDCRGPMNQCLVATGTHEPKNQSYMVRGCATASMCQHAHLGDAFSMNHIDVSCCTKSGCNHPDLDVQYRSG
Text: Briefly, murine fibroblast L929 cells (ATCC) were transfected to express human uPAR.

[5] = target: T1, human Ly6e with a myc tag, expressed in …; test: FACS, HEK293T cells expressing Ly6e, supernatant 1:2
Experimental: The reactivity of the antibodies to the HEK293T transfected to express Ly6e was determined by FACS analysis, using 1:2 hybridoma supernatants, and probed with goat anti-human γ chain conjugated with Cy5 (2.5 mg/ml, Jackson Immune Research). Binding of an anti-myc antibody (10 μg/ml, Invitrogen) to the transfectants served as a positive control, and binding of this antibody to the (Ly6e negative) parental cells served as the negative control.

[6] = target: T2, mouse uPAR on the surface of NCTC L929 …; test: FACS, NCTC L929 mouse cells, mAb 6.25 µg/ml
Experimental: To make the mouse cross-reactivity results conclusive, direct binding of the mAbs to cell-bound mouse uPAR was measured using FACS analysis. The mouse cell line derived from the connective tissue, NCTC L929, was employed for FACS analysis. The harvested cells were resuspended at 50,000 cells/well using FACS buffer into a V-bottom plate which was put on ice. […] After washing, Cy5-labeled goat anti-human IgG Fc at 5 μg/ml and 7AAD at 5 μg/ml was added. The mixtures were incubated for 15 min on ice, washed and resuspended in cold FACS buffer for FACS analysis.

[7] = target: T8, human urokinase-type plasminogen …; test: FACS, B300.19 cells expressing human uPAR, anti-human gamma Cy5
Target sequence in this assay (Q03405 23-305): as above

[8] = target: T3, lane 1: murine DI/DIII-human DII uPAR …; test: Western blot of HEK293T culture supernatants with His-tagged uPAR proteins, probed with the antibody
Text: (§1) Human-murine uPAR chimeras (His-tagged) were expressed in BEK293T cells and uPAR expression was detected using the anti-human uPAR mAbs as indicated.
(§2) Chimeric human-murine uPAR comprising murine D1/humanD2D3; murine D1/human D2/MuD3; and human D1D2/murineD3uPAR each with a C-terminal His tag were expressed as secreted proteins in HEK293T cells.

[9] = target: T4, lane 4: human DI/DII-murine DIII uPAR …; test: as above
Text: as §1, §2

[10] = target: T5, lane 3: murine DI-human DII/DIII uPAR …; test: as above
Text: as §1, §2

[11] = target: T6, lane 2: murine DI/DII-human DIII uPAR …; test: as above
Text: as §1, §2

LA at 20 ng/ml [1]	geo mean cold - TCEP [2]	Kd [3]	Human uPAR/uPA binding inhibition (%, line material) [4]	binding result [5]	X Geo Mean [6]	gCy5 Geo Mean Pos Cells [7]	binding result [8]	binding result [9]	binding result [10]	binding result [11]	Binder
0.27	41.2	1.5 nM	75%	no binding (tested: GeoMean ratio 1.95)	8.18	251	no binding	no binding	binds	no binding	fully human monoclonal antibody 4.18.1 (ATCC Accession Number PTA-7476) (antibody, V domains shown) VH: EVQLVESGGGLIQPGGSLRLSCAASGFTVRNNYMNWVRQAPGKGLEWVSVIYTGGSTYYADSVKGRFTISRDNSRNTLYLQMNSLRAEDTAVYYCAREGAVAGFDYWGQGTLVTVSL VL: EIVMTQFPATLSMSPGERATLSCRASQSVSSSLAWYQQTPGQAPRLLIYGASTRSTGFPARFSGIGSGTEFTLTISSLQSEDFAVYYCQQYGNWPLTFGQGTRLEIK
0.65	42.7	0.31 nM	85%	no binding (tested: GeoMean ratio 1.95)	9.55	445	no binding	binds	no binding	no binding	fully human monoclonal antibody 2.19.2 (ATCC Accession Number PTA-7474) (antibody, V domains shown) VH: QVQLVESGGGVVQPGRSLRLSCAASGFTFSSYGMHWVRQAPGKGLEWVAVIWYDGSNKYYADSVKGRFTISRDNSKNTLYLQMNSLRAEDTAVYYCARDQHIVVVTAILDYWGQGTLVTVSS VL: not shown
0.63	44.3	0.57 nM	80%	no binding (tested: GeoMean ratio 1.95)	12.9	455	no binding	no binding	binds	no binding	fully human monoclonal antibody 2.6.1 (ATCC Accession Number PTA-7475) (antibody, V domains shown, also called mAb 2.6.1) VH: EVQLVESGGGLIQPGGSLRLSCAASGFTVITNYMNWVRQAPGKGLEWVSIIYTGGSTSYADSVKGRFTVSRDNSKNTLYLHMNSLRVEDTAVYYCAREIAVAGYYGMDVWGQGTTVTVS VL: DIQMTQSPSSLSASVGDRVTITCRASQGIRNDLGWYQQKPGKAPKRLIYAASSLQSGVPSRFSGSGSGTEFTLTISSLQPEDFATYYCLQHNSYPLTFGGGTRVEIK
